We go through 32 molecules from US20260184782A1 (TWIST BIOSCIENCE, published 2026).

The target of this assay is T1, human TIGIT-Fc (human, UniProt Q495A1 22-141, limits assumed).
T1 construct: not shown: Fc; not described
T1 sequence (looked up): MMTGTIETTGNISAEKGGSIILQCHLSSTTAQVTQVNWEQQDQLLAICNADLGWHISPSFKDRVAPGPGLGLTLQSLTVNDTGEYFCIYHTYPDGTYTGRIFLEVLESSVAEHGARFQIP
The assay can be described thus: CD155 competition ELISA, single point. Further: test concentration or dose not given here. How it is done: TIGIT/CD155 inhibition of VHH-Fcs were assessed using an ELISA assay (Table 10B). Briefly, human TIGIT-Fc was coated on a plate & then incubated with VHH-Fcs and human CD155-biotin. Bound CD155-biotin was detected using a streptavidin-HRP conjugate visualized with TMB. Strong inhibitors from the single point screen were titrated to determine EC50 (Table 10C).

B1: TIGIT-SC20 (Fc fusion)
VHH: EVQLVESGGGLVQPGGSLRLSCAASGNTFSGGFMGWFRQAPGKEREWVASVLRGGYTWYADSVKGRFTISADNSKNTAYLQMNSLKPEDTAVYYCATPRGYWGQGTLVTVSS
notes: VHH-Fc
As for B1, the “OD (450 nm)” value stood at 0.726 OD.

B2: TIGIT-SC8 (Fc fusion)
VHH: EVQLVESGGGLVQPGGSLRLSCAASGFAFSSYAMGWFRQAPGKEREFVARITWNGGSAYYADSVKGRFTISADNSKNTAYLQMNSLKPEDTAVYYCAAGATGWFDPWGQGTLVTVSS
notes: VHH-Fc
As to B2, the “OD (450 nm)” value was 0.817 OD.

B3: TIGIT-SC6 (Fc fusion)
VHH: EVQLVESGGGLVQPGGSLRLSCAASGNTFSGGFMGWFRQAPGKEREWVASVLRGGYTWYADSVKGRFTISADNSKNTAYLQMNSLKPEDTAVYYCAISPVAWHAKFDSWGQGTLVTVSS
notes: VHH-Fc
For the molecule B3, the “OD (450 nm)” value came to 0.558 OD.

B4: TIGIT-SC165 (Fc fusion)
VHH: EVQLVESGGGLVQPGGSLRLSCAASGNTFSGGFMGWFRQAPGKEREWVASVLRGGYTWYADSVKGRFTISADNSKNTAYLQMNSLKPEDTAVYYCTTEGSGWRNWGQGTLVTVSS
notes: VHH-Fc
Consider B4, for which the “OD (450 nm)” value is 0.324 OD.

B5: TIGIT-SC164 (Fc fusion)
VHH: EVQLVESGGGLVQPGGSLRLSCAASGFTFDRSWMGWFRQAPGKEREFVASVLRGGYTWYADSVKGRFTISADNSKNTAYLQMNSLKPEDTAVYYCTTEGSGWRNWGQGTLVTVSS
notes: VHH-Fc
With B5, the “OD (450 nm)” value came out at 0.363 OD.

B6: TIGIT-SC37 (Fc fusion)
VHH: EVQLVESGGGLVQPGGSLRLSCAASGNTFSGGFMGWFRQAPGKEREWVASVLRGGYTWYADSVKGRFTISADNSKNTAYLQMNSLKPEDTAVYYCVFGGVWQDVWGQGTLVTVSS
notes: VHH-Fc
With B6, the “OD (450 nm)” value is 0.341 OD.

B7: TIGIT-SC17 (Fc fusion)
VHH: EVQLVESGGGLVQPGGSLRLSCAASGFDFSVSWMGWFRQAPGKEREWVASVLRGGYTWYADSVKGRFTISADNSKNTAYLQMNSLKPEDTAVYYCAREGSWFDYWGQGTLVTVSS
notes: VHH-Fc
In the case of B7, the “OD (450 nm)” value turned out to be 0.553 OD.

B8: TIGIT-SC189 (Fc fusion)
VHH: EVQLVESGGGLVQPGGSLRLSCAASGNTFSGGFMGWFRQAPGKEREWVASVLRGGYTWYADSVKGRFTISADNSKNTAYLQMNSLKPEDTAVYYCVTDVGAPDYWGQGTLVTVSS
notes: VHH-Fc
For B8, the “OD (450 nm)” value worked out at 0.486 OD.

B9: TIGIT-SC3 (Fc fusion)
VHH: EVQLVESGGGLVQPGGSLRLSCAASGTFQRINAMGWFRQAPGKEREFVSTINWSGSNTYYADSVKGRFTISADNSKNTAYLQMNSLKPEDTAVYYCASSYSSSSGLGDIWGQGTLVTVSS
notes: VHH-Fc
Take B9: the “OD (450 nm)” value came to 0.748 OD.

B10: TIGIT-SC14 (Fc fusion)
VHH: EVQLVESGGGLVQPGGSLRLSCAASGSISSIHAMGWFRQAPGKEREFVATISRSGVGTFYADSVKGRFTISADNSKNTAYLQMNSLKPEDTAVYYCASSYSSSSGLGDIWGQGTLVTVSS
notes: VHH-Fc
For the molecule B10, the “OD (450 nm)” value is 0.61 OD.

B11: TIGIT-SC2 (Fc fusion)
VHH: EVQLVESGGGLVQPGGSLRLSCAASGFTLSSNWMGWFRQAPGKEREMVAAIDWSGGSALYADSVKGRFTISADNSKNTAYLQMNSLKPEDTAVYYCAKDALSNSARFDHWGQGTLVTVSS
notes: VHH-Fc
For B11, the “OD (450 nm)” value amounted to 0.407 OD.

B12: TIGIT-SC16 (Fc fusion)
VHH: EVQLVESGGGLVQPGGSLRLSCAASGTTFSSAAMGWFRQAPGKEREWVASVLRGGYTWYADSVKGRFTISADNSKNTAYLQMNSLKPEDTAVYYCARDPVELGDYWGQGTLVTVSS
notes: VHH-Fc
Regarding B12, the “OD (450 nm)” value was determined as 0.471 OD.

B13: TIGIT-SC13 (Fc fusion)
VHH: EVQLVESGGGLVQPGGSLRLSCAASGRTFSFMGWFRQAPGKEREWVASVLRGGYTWYADSVKGRFTISADNSKNTAYLQMNSLKPEDTAVYYCATESMDYWGQGTLVTVSS
notes: VHH-Fc
With B13, the “OD (450 nm)” value came to 0.666 OD.

B14: TIGIT-SC7 (Fc fusion)
VHH: EVQLVESGGGLVQPGGSLRLSCAASGRSFSMYVMGWFRQAPGKEREGVSFISGSDGSTLYADSVKGRFTISADNSKNTAYLQMNSLKPEDTAVYYCARGSIAARPVFFDYWGQGTLVTVSS
notes: VHH-Fc
Consider B14, for which the “OD (450 nm)” value was found to be 0.735 OD.

B15: TIGIT-SC9 (Fc fusion)
VHH: EVQLVESGGGLVQPGGSLRLSCAASGNTFSGGFMGWFRQAPGKEREWVASVLRGGYTWYADSVKGRFTISADNSKNTAYLQMNSLKPEDTAVYYCVNGYSYGRDYWGQGTLVTVSS
notes: VHH-Fc
As to B15, the “OD (450 nm)” value was found to be 0.756 OD.

B16: TIGIT-SC156 (Fc fusion)
VHH: EVQLVESGGGLVQPGGSLRLSCAASGNTFSGGFMGWFRQAPGKEREWVASVLRGGYTWYADSVKGRFTISADNSKNTAYLQMNSLKPEDTAVYYCTTEGYDFWSGYYDYWGQGTLVTVSS
notes: VHH-Fc
As to B16, the “OD (450 nm)” value is 0.701 OD.

B17: TIGIT-SC162 (Fc fusion)
VHH: EVQLVESGGGLVQPGGSLRLSCAASGNTFSGGFMGWFRQAPGKEREWVASVLRGGYTWYADSVKGRFTISADNSKNTAYLQMNSLKPEDTAVYYCTTDRAIGVRPLFDHWGQGTLVTVSS
notes: VHH-Fc
Consider B17, for which the “OD (450 nm)” value amounted to 0.423 OD.

B18: TIGIT-SC12 (Fc fusion)
VHH: EVQLVESGGGLVQPGGSLRLSCAASGRTFSAYGMGWFRQAPGKEREFVAAITPSSRTTYYADSVKGRFTISADNSKNTAYLQMNSLKPEDTAVYYCAKDNWGEWLMPWWGQGTLVTVSS
notes: VHH-Fc
As to B18, the “OD (450 nm)” value came to 0.622 OD.

B19: TIGIT-SC60 (Fc fusion)
VHH: EVQLVESGGGLVQPGGSLRLSCAASGFTFSPSWMGWFRQAPGKEREWVASVLRGGYTWYADSVKGRFTISADNSKNTAYLQMNSLKPEDTAVYYCARDDLDYWGQGTLVTVSS
notes: VHH-Fc
Consider B19, for which the “OD (450 nm)” value is 0.349 OD.

B20: TIGIT-SC188 (Fc fusion)
VHH: EVQLVESGGGLVQPGGSLRLSCAASGNTFSGGFMGWFRQAPGKEREWVASVLRGGYTWYADSVKGRFTISADNSKNTAYLQMNSLKPEDTAVYYCTTDSLPGWGQGTLVTVSS
notes: VHH-Fc
With B20, the “OD (450 nm)” value came out at 0.524 OD.

B21: TIGIT-SC5 (Fc fusion)
VHH: EVQLVESGGGLVQPGGSLRLSCAASGFAFGDSWMGWFRQAPGKEREWVASVLRGGYTWYADSVKGRFTISADNSKNTAYLQMNSLKPEDTAVYYCARESEGWFDPWGQGTLVTVSS
notes: VHH-Fc
Regarding B21, the “OD (450 nm)” value is 0.564 OD.

B22: TIGIT-SC23 (Fc fusion)
VHH: EVQLVESGGGLVQPGGSLRLSCAASGFTLSSNWMGWFRQAPGKEREWVASVLRGGYTWYADSVKGRFTISADNSKNTAYLQMNSLKPEDTAVYYCARERLGWFDPWGQGTLVTVSS
notes: VHH-Fc
B22: the “OD (450 nm)” value turned out to be 0.424 OD.

B23: TIGIT-SC183 (Fc fusion)
VHH: EVQLVESGGGLVQPGGSLRLSCAASGFAFGDSWMGWFRQAPGKEREWVASVLRGGYTWYADSVKGRFTISADNSKNTAYLQMNSLKPEDTAVYYCAKDRSYSFDYWGQGTLVTVSS
notes: VHH-Fc
B23: the “OD (450 nm)” value is 0.5 OD.

B24: TIGIT-SC1 (Fc fusion)
VHH: EVQLVESGGGLVQPGGSLRLSCAASGFTLNDYAMGWFRQAPGKERELVAWIARYDGSTLYADSVKGRFTISADNSKNTAYLQMNSLKPEDTAVYYCARVDWALNAAPFDYWGQGTLVTVSS
notes: VHH-Fc
In the case of B24, the “OD (450 nm)” value stood at 0.649 OD.

B25: TIGIT-SC19 (Fc fusion)
VHH: EVQLVESGGGLVQPGGSLRLSCAASGRTYDAMGWFRQAPGKEREWVASVLRGGYTWYADSVKGRFTISADNSKNTAYLQMNSLKPEDTAVYYCARDVDYRFDSWGQGTLVTVSS
notes: VHH-Fc
Regarding B25, the “OD (450 nm)” value amounted to 0.746 OD.

B26: TIGIT-SC4 (Fc fusion)
VHH: EVQLVESGGGLVQPGGSLRLSCAASGSIDRINAMGWFRQATGKEREWVASVLRGGYTWYADSVKGRFTISADNSKNTAYLQMNSLKPEDTAVYYCARDSYSTSFWFDPWGQGTLVTVSS
notes: VHH-Fc
In the case of B26, the “OD (450 nm)” value is 0.579 OD.

B27: TIGIT-SC15 (Fc fusion)
VHH: EVQLVESGGGLVQPGGSLRLSCAASGSILSFNHIGWFRQAPGKEREGVAWIARYDGSTLYADSVKGRFTISADNSKNTAYLQMNSLKPEDTAVYYCARARGGYVDYWGQGTLVTVSS
notes: VHH-Fc
Regarding B27, the “OD (450 nm)” value amounted to 0.576 OD.

B28: TIGIT-SC10 (Fc fusion)
VHH: EVQLVESGGGLVQPGGSLRLSCAASGNTFSGGFMGWFRQAPGKEREWVASVLRGGYTWYADSVKGRFTISADNSKNTAYLQMNSLKPEDTAVYYCASDPWGTRYFDHWGQGTLVTVSS
notes: VHH-Fc
Consider B28, for which the “OD (450 nm)” value came to 0.756 OD.

B29: TIGIT-SC61 (Fc fusion)
VHH: EVQLVESGGGLVQPGGSLRLSCAASGNTFSGGFMGWFRQAPGKEREWVASVLRGGYTWYADSVKGRFTISADNSKNTAYLQMNSLKPEDTAVYYCTRGDTAMATFDYWGQGTLVTVSS
notes: VHH-Fc
Take B29: the “OD (450 nm)” value is 0.343 OD.

B30: TIGIT-SC21 (Fc fusion)
VHH: EVQLVESGGGLVQPGGSLRLSCAASGNTFSGGFMGWFRQAPGKEREWVASVLRGGYTWYADSVKGRFTISADNSKNTAYLQMNSLKPEDTAVYYCARGGAGSDWFGPWGQGTLVTVSS
notes: VHH-Fc
Regarding B30, the “OD (450 nm)” value amounted to 0.607 OD.

B31: TIGIT-SC175 (Fc fusion)
VHH: EVQLVESGGGLVQPGGSLRLSCAASGNTFSGGFMGWFRQAPGKEREWVASVLRGGYTWYADSVKGRFTISADNSKNTAYLQMNSLKPEDTAVYYCTTDALRFLEWPWWGQGTLVTVSS
notes: VHH-Fc
Regarding B31, the “OD (450 nm)” value stood at 0.59 OD.

B32: TIGIT-SC18 (Fc fusion)
VHH: EVQLVESGGGLVQPGGSLRLSCAASGFSLDYYAMGWFRQAPGKEREVVAIIDTNGDNTLYADSVKGRFTISADNSKNTAYLQMNSLKPEDTAVYYCARGRGYGDYVGAYWGQGTLVTVSS
notes: VHH-Fc
Take B32: the “OD (450 nm)” value is 0.716 OD.
